Measured values reported in the supplement of paper PMC10567573.

B1: PCMTD2 (parent)
chain: FFIRTSDSFDKFDFCEPSFVTGNC

Variants of: B1
Test: protein stability index of a GFP-peptide fusion (GPS, HEK-293T) (PSI 1-6); higher = more stable
Conditions: c terminus: a fixed tail appended
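Also: lentivirally expressed fusions sorted by FACS into six bins by GFP to DsRed ratio, PSI derived from sequencing read proportions per bin multiplied by bin number.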

Variant | protein stability index
FFIRTSDSFDKTDFCEPSFVTGNC | 2.22
FFIRTSDSFDKFDFCEPSFVTHNC | 3.63
FFIRTSDSFDKFDFCEPSFVTGNL | 2.66
FFIRTSDSFDKFDFCEPSFVTFNC | 1.68
FFIRTSDCFDKFDFCEPSFVTGNC | 3.14
FFIRASDSFDKFDFCEPSFVTGNC | 3.25
FFIRTSDSFDKFDFCEPDFVTGNC | 2.42
FIIRTSDSFDKFDFCEPSFVTGNC | 2.55
FFIRTSDSFDKFDFCPPSFVTGNC | 1.87
FPIRTSDSFDKFDFCEPSFVTGNC | 2.13
FFIRTSDSFGKFDFCEPSFVTGNC | 2.61
FFIRTSDSFDKFDFFEPSFVTGNC | 3.17
FFIRTSDSFDKFDFCNPSFVTGNC | 2.95
FFIRTSDSFDKFDFCEPSPVTGNC | 1.92
FHIRTSDSFDKFDFCEPSFVTGNC | 1.89
FNIRTSDSFDKFDFCEPSFVTGNC | 2.35
FFIRTSDSFDKFDFCEPSFVTGNS | 2.78
FFIRTSDSFDKFDFCEPNFVTGNC | 2.91
FFIRTSDSFDWFDFCEPSFVTGNC | 3.22
FFIRTSDSFDKFKFCEPSFVTGNC | 2.85
FFIRTSDSFDKFDRCEPSFVTGNC | 2.37
FFIRTSDSFDKFDFCEKSFVTGNC | 2
FFIRTSDSFDAFDFCEPSFVTGNC | 2.13
YFIRTSDSFDKFDFCEPSFVTGNC | 2.39
FFIRTSDSFDKFDYCEPSFVTGNC | 2.92
FFIRTSDSFDPFDFCEPSFVTGNC | 2.72

Variant | protein stability index
FFIRTSDSFDKFDFCEPSWVTGNC | 3.83
FFIRTSDSFCKFDFCEPSFVTGNC | 3.08
FFIRTSDSFDKFDFCEPSFWTGNC | 2.15
FFIRTSDSFIKFDFCEPSFVTGNC | 2.31
FFIRPSDSFDKFDFCEPSFVTGNC | 3.1
FFIRTSDSFDKFDFCEPSFVAGNC | 2.61
FVIRTSDSFDKFDFCEPSFVTGNC | 3.17
FFHRTSDSFDKFDFCEPSFVTGNC | 2
SFIRTSDSFDKFDFCEPSFVTGNC | 2.31
FFIRTSDSFDKFDFCEPSFVTRNC | 1.87
FFIRTSDSFDKFDFCEPSFVTGNP | 1.74
FFIRQSDSFDKFDFCEPSFVTGNC | 1.78
FFIRTSDSFDKFDFCEPSFVTGDC | 2.84
FFIRTSDSNDKFDFCEPSFVTGNC | 2.18
FFPRTSDSFDKFDFCEPSFVTGNC | 1.9
FFIRTSDSFVKFDFCEPSFVTGNC | 3.82
FFIRTSDSFDKFDFCEDSFVTGNC | 1.47
FFIRTIDSFDKFDFCEPSFVTGNC | 2.29
FFIFTSDSFDKFDFCEPSFVTGNC | 2.52
FFIRTSDSFDKIDFCEPSFVTGNC | 2.05
FFIRTSDSFDKFDTCEPSFVTGNC | 2.5
FFIRTSDSFDKFDVCEPSFVTGNC | 2.05
FFIRTSDSFDKFDFCEPSFSTGNC | 2.47
FFIRTSDSFDKFDFCEPSFVVGNC | 3.86
FFIRTSDSFDKFDFCEPSFETGNC | 2.26
FFIRTSDSFDKFDFCEPSFVTQNC | 2.74

Variant | protein stability index
FFIMTSDSFDKFDFCEPSFVTGNC | 4.34
FFIRTSDSFDKFDFCWPSFVTGNC | 3.77
FFIRTSDSFDKFDFCEPFFVTGNC | 2.02
DFIRTSDSFDKFDFCEPSFVTGNC | 2.41
LFIRTSDSFDKFDFCEPSFVTGNC | 2.4
FFNRTSDSFDKFDFCEPSFVTGNC | 1.98
FFIRTSWSFDKFDFCEPSFVTGNC | 3.44
FFIITSDSFDKFDFCEPSFVTGNC | 1.55
FFIRGSDSFDKFDFCEPSFVTGNC | 1.92
FFIRTSDSFDKADFCEPSFVTGNC | 2.4
FCIRTSDSFDKFDFCEPSFVTGNC | 1.92
FFIRTSDSFDKFDFCEPSFVTGMC | 1.83
FFIRTSDSFDKFIFCEPSFVTGNC | 3.44
FFIRTSDSFDKFDFCEPSFVTGSC | 2.54
FFIRTSDSEDKFDFCEPSFVTGNC | 1.9
FFIVTSDSFDKFDFCEPSFVTGNC | 2.33
FFIRTSDSFDKFDFCMPSFVTGNC | 3.1
FFIRTSDSFDKFDFCEPSFVTGNG | 2.09
FFIRTSDSFDKFQFCEPSFVTGNC | 3.23
FFIRTSDSFDKFDFCEPSFVTENC | 2.16
FFIRTSDSFDKFDFCESSFVTGNC | 2.03
FFIRTSDSFDKFDFCEPSFVQGNC | 2.22
FFIRTSDSFDKFDFCRPSFVTGNC | 2.11
FFIRTSDSFDCFDFCEPSFVTGNC | 2.65
FFIRTSDSFDKFDFCEPSFKTGNC | 1.86
FFIRTSDSFDKFDFCEFSFVTGNC | 2.3
